Test results: the supplement of paper PMC9112550, “Optimization of the antimicrobial peptide Bac7 by deep mutational scanning” (BMC Biology, 2022)

Tested on: Escherichia coli TOP10
Assay: shrunken log2 fold change of peptide-encoding DNA abundance (4.5 h post-induction vs induction); higher = less antimicrobial activity (less host growth inhibition)
Details: time post-induction: 4.5 h; library: site-saturation at positions 5, 18, 19, 20
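Further: peptides expressed intracellularly from a pBAD plasmid library in pooled LB shake-flask culture, induced with 0.3% L-arabinose, DNA abundance read by NGS, three biological replicates, DESeq2 with apeglm shrinkage.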

Sequence | shrunken log2 fold change
RRIRKRPPRLPRPRPRPSFLPRP | 0.104
RRIRKRPPRLPRPRPRPSGCPRP | -0.00526
RRIRKRPPRLPRPRPRPSHNPRP | -0.351
RRIRKRPPRLPRPRPRPSMKPRP | -0.212
RRIRKRPPRLPRPRPRPSMMPRP | 0.677
RRIRKRPPRLPRPRPRPSMQPRP | 0.293
RRIRKRPPRLPRPRPRPSNDPRP | 0.257
RRIRKRPPRLPRPRPRPSNGPRP | -0.00174
RRIRKRPPRLPRPRPRPSNHPRP | -0.347
RRIRKRPPRLPRPRPRPSNIPRP | -0.306
RRIRKRPPRLPRPRPRPSNKPRP | 0.0208
RRIRKRPPRLPRPRPRPSPKPRP | 0.057
RRIRKRPPRLPRPRPRPSPQPRP | 0.219
RRIRKRPPRLPRPRPRPSPRPRP | 1.04
RRIRKRPPRLPRPRPRPSQQPRP | 0.312
RRIRKRPPRLPRPRPRPSRQPRP | 0.192
RRIRKRPPRLPRPRPRPSRTPRP | 0.391
RRIRKRPPRLPRPRPRPSTDPRP | -0.135
RRIRKRPPRLPRPRPRPSTQPRP | 0.169
RRIRKRPPRLPRPRPRPSWEPRP | 0.153
RRIRKRPPRLPRPRPRPTAEPRP | 0.079
RRIRKRPPRLPRPRPRPTANPRP | 0.863
RRIRKRPPRLPRPRPRPTCRPRP | 0.289
RRIRKRPPRLPRPRPRPTEQPRP | 2.01
RRIRKRPPRLPRPRPRPTETPRP | 0.114

Sequence | shrunken log2 fold change
RRIRKRPPRLPRPRPRPTFMPRP | 0.189
RRIRKRPPRLPRPRPRPTGLPRP | 0.223
RRIRKRPPRLPRPRPRPTGWPRP | 1.44
RRIRKRPPRLPRPRPRPTKVPRP | 1.21
RRIRKRPPRLPRPRPRPTMMPRP | 0.316
RRIRKRPPRLPRPRPRPTNSPRP | -0.241
RRIRKRPPRLPRPRPRPTPAPRP | 1.41
RRIRKRPPRLPRPRPRPTPQPRP | 0.896
RRIRKRPPRLPRPRPRPTPTPRP | 0.831
RRIRKRPPRLPRPRPRPTQFPRP | 1.1
RRIRKRPPRLPRPRPRPTQKPRP | 0.0634
RRIRKRPPRLPRPRPRPTQLPRP | 0.65
RRIRKRPPRLPRPRPRPTRWPRP | 0.413
RRIRKRPPRLPRPRPRPTTGPRP | 0.733
RRIRKRPPRLPRPRPRPTTHPRP | 0.495
RRIRKRPPRLPRPRPRPTTKPRP | -0.0244
RRIRKRPPRLPRPRPRPTTSPRP | 0.321
RRIRKRPPRLPRPRPRPTWKPRP | 0.107
RRIRKRPPRLPRPRPRPTYIPRP | -0.154
RRIRKRPPRLPRPRPRPVAKPRP | 3.34
RRIRKRPPRLPRPRPRPVESPRP | 0.0629
RRIRKRPPRLPRPRPRPVHSPRP | 0.034
RRIRKRPPRLPRPRPRPVKAPRP | -0.0242
RRIRKRPPRLPRPRPRPVKIPRP | 0.158
RRIRKRPPRLPRPRPRPVNEPRP | -0.00608

Sequence | shrunken log2 fold change
RRIRKRPPRLPRPRPRPVNYPRP | -0.0716
RRIRKRPPRLPRPRPRPVQCPRP | 0.0223
RRIRKRPPRLPRPRPRPVQFPRP | -0.0421
RRIRKRPPRLPRPRPRPVQYPRP | 0.071
RRIRKRPPRLPRPRPRPVSAPRP | 0.887
RRIRKRPPRLPRPRPRPVTWPRP | 0.0106
RRIRKRPPRLPRPRPRPVVFPRP | -0.0936
RRIRKRPPRLPRPRPRPVVVPRP | 0.212
RRIRKRPPRLPRPRPRPVWPPRP | 0.699
RRIRKRPPRLPRPRPRPVWQPRP | 0.184
RRIRKRPPRLPRPRPRPVYHPRP | 0.0002
RRIRKRPPRLPRPRPRPVYMPRP | -0.082
RRIRKRPPRLPRPRPRPVYPPRP | 0.293
RRIRKRPPRLPRPRPRPWAEPRP | 0.0785
RRIRKRPPRLPRPRPRPWAGPRP | 0.115
RRIRKRPPRLPRPRPRPWAVPRP | 0.192
RRIRKRPPRLPRPRPRPWDCPRP | 0.121
RRIRKRPPRLPRPRPRPWDNPRP | 0.0448
RRIRKRPPRLPRPRPRPWEFPRP | 0.504
RRIRKRPPRLPRPRPRPWGPPRP | -0.125
RRIRKRPPRLPRPRPRPWHFPRP | 0.169
RRIRKRPPRLPRPRPRPWIRPRP | -0.336
RRIRKRPPRLPRPRPRPWKNPRP | -0.00973
RRIRKRPPRLPRPRPRPWKPPRP | -0.243
RRIRKRPPRLPRPRPRPWMGPRP | -0.0352
